Target: actin from rabbit skeletal muscle (G-actin polymerized to F-actin) (rabbit) (UniProt P68135)

MBP-DRR1 dC (recombinant murine DRR1 lacking the C-terminal domain, MBP fusion) (domain or fragment), sequence (Q78TU8 whole entry, the tested form may be a part): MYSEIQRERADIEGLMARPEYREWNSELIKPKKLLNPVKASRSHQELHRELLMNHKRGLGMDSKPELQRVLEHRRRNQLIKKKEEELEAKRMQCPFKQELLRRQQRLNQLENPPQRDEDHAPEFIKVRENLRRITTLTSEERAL

“MBP-DRR1 dC (recombinant murine DRR1 lacking the C-terminal domain, MBP fusion) (domain or fragment)” was tested, and the barbed end filament elongation rate in the presence of profilin (1.5 µM), TIRF microscopy, R = 0.5 was 36 % of control.

Source: PMC6321462
